According to PMC12816604, “Structural basis of double-stranded RNA recognition by the J2 monoclonal antibody”:
Where a chain is given by its changes, count along the chain named.

Legend:
[1] = tested on: J2 IgG WT, PDB:9OJV_1+PDB:9OJV_2; assay: BLI steady state; settings: BLI: 25 mM Tris-HCl pH 7.5, 100-400 mM KCl (per row), 2 mM MgCl2, 25 C, IgG immobilized on Protein A, FP: 25 mM Tris-HCl pH 7.5, 100 mM KCl, 2 mM MgCl2, 21 C
[2] = tested on: J2 IgG WT, PDB:9OJV_1+PDB:9OJV_2; assay: FP; settings: BLI: 25 mM Tris-HCl pH 7.5, 100-400 mM KCl (per row), 2 mM MgCl2, 25 C, IgG immobilized on Protein A; FP: 25 mM Tris-HCl pH 7.5, 100 mM KCl, 2 mM MgCl2, 21 C
[3] = tested on: J2 IgG WT, PDB:9OJV_1+PDB:9OJV_2; assay: FP competition; settings: vs 3'-FAM VA-I RNA; BLI: 25 mM Tris-HCl pH 7.5, 100-400 mM KCl (per row), 2 mM MgCl2, 25 C, IgG immobilized on Protein A; FP: 25 mM Tris-HCl pH 7.5, 100 mM KCl, 2 mM MgCl2, 21 C
[4] = tested on: J2 IgG HC Y52F, PDB:9OJV_1+PDB:9OJV_2; assay: BLI steady state; settings: 100 mM KCl; kinetic Kd 210 ± 20 nM; BLI: 25 mM Tris-HCl pH 7.5, 100-400 mM KCl (per row), 2 mM MgCl2, 25 C, IgG immobilized on Protein A; FP: 25 mM Tris-HCl pH 7.5, 100 mM KCl, 2 mM MgCl2, 21 C
[5] = tested on: J2 IgG LC Y38F, PDB:9OJV_1+PDB:9OJV_2; assay: BLI steady state; settings: 100 mM KCl; kinetic Kd 83 ± 14 nM; BLI: 25 mM Tris-HCl pH 7.5, 100-400 mM KCl (per row), 2 mM MgCl2, 25 C, IgG immobilized on Protein A; FP: 25 mM Tris-HCl pH 7.5, 100 mM KCl, 2 mM MgCl2, 21 C
[6] = tested on: J2 IgG HC Y54A, PDB:9OJV_1+PDB:9OJV_2; assay: BLI steady state; settings: 100 mM KCl; kinetic Kd 270 ± 10 nM; BLI: 25 mM Tris-HCl pH 7.5, 100-400 mM KCl (per row), 2 mM MgCl2, 25 C, IgG immobilized on Protein A; FP: 25 mM Tris-HCl pH 7.5, 100 mM KCl, 2 mM MgCl2, 21 C
[7] = tested on: J2 IgG HC Y50F, PDB:9OJV_1+PDB:9OJV_2; assay: BLI steady state; settings: 100 mM KCl; kinetic Kd 94 ± 49 nM; BLI: 25 mM Tris-HCl pH 7.5, 100-400 mM KCl (per row), 2 mM MgCl2, 25 C, IgG immobilized on Protein A; FP: 25 mM Tris-HCl pH 7.5, 100 mM KCl, 2 mM MgCl2, 21 C
[8] = tested on: J2 IgG LC Y31A, PDB:9OJV_1+PDB:9OJV_2; assay: BLI steady state; settings: 100 mM KCl; kinetic Kd 207 ± 21 nM; BLI: 25 mM Tris-HCl pH 7.5, 100-400 mM KCl (per row), 2 mM MgCl2, 25 C, IgG immobilized on Protein A; FP: 25 mM Tris-HCl pH 7.5, 100 mM KCl, 2 mM MgCl2, 21 C
[9] = tested on: J2 IgG HC A30P, PDB:9OJV_1+PDB:9OJV_2; assay: BLI steady state; settings: 100 mM KCl; kinetic Kd 28 ± 14 nM; BLI: 25 mM Tris-HCl pH 7.5, 100-400 mM KCl (per row), 2 mM MgCl2, 25 C, IgG immobilized on Protein A; FP: 25 mM Tris-HCl pH 7.5, 100 mM KCl, 2 mM MgCl2, 21 C
[10] = tested on: J2 IgG HC Y54F, PDB:9OJV_1+PDB:9OJV_2; assay: BLI steady state; settings: 100 mM KCl; kinetic Kd 250 ± 40 nM; BLI: 25 mM Tris-HCl pH 7.5, 100-400 mM KCl (per row), 2 mM MgCl2, 25 C, IgG immobilized on Protein A; FP: 25 mM Tris-HCl pH 7.5, 100 mM KCl, 2 mM MgCl2, 21 C
[11] = tested on: J2 IgG LC Y31F, PDB:9OJV_1+PDB:9OJV_2; assay: BLI steady state; settings: 100 mM KCl; kinetic Kd 130 ± 20 nM; BLI: 25 mM Tris-HCl pH 7.5, 100-400 mM KCl (per row), 2 mM MgCl2, 25 C, IgG immobilized on Protein A; FP: 25 mM Tris-HCl pH 7.5, 100 mM KCl, 2 mM MgCl2, 21 C
[12] = target: T1, J2 IgG heavy chain (HC-TEV-His8);J2 IgG light chain (Mus musculus;Mus musculus, UniProt ; ;, |); assay: BLI; 200 mM KCl; BLI: 25 mM Tris-HCl pH 7.5, 2 mM MgCl2, KCl 100 mM (6-20 bp and mutants), 200 mM (30 bp) or 400 mM (40, 50 bp), 25 C; IgG immobilised on Protein A probes; settings: protein: recombinant;recombinant, tags: His8 (C-term);, chain copies: 2;2
T1 sequence (chain, as listed by the source |, chain 1 of 2): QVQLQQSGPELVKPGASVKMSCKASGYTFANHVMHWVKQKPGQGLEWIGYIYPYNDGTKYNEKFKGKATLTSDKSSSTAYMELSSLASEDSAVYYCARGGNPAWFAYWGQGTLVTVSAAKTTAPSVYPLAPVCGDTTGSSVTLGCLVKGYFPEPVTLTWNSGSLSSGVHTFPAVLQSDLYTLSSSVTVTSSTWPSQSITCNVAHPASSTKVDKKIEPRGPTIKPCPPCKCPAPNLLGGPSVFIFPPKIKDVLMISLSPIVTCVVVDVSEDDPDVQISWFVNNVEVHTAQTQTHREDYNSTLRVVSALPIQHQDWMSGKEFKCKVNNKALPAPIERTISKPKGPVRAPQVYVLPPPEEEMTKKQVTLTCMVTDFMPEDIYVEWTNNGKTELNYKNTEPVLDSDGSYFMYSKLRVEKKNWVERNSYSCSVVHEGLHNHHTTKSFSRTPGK
T1 sequence (chain, as listed by the source |, chain 2 of 2): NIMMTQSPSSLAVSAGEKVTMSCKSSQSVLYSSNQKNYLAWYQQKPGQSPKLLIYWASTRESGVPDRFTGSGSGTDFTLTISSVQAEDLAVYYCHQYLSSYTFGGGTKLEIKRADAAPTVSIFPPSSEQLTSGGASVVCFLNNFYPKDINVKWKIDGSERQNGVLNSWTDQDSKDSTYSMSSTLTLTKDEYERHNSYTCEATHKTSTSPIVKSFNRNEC

[13] = target: T1, J2 IgG heavy chain (HC-TEV-His8);J2 IgG …; assay: BLI; 400 mM KCl; BLI: 25 mM Tris-HCl pH 7.5, 2 mM MgCl2, KCl 100 mM (6-20 bp and mutants), 200 mM (30 bp) or 400 mM (40, 50 bp), 25 C; IgG immobilised on Protein A probes; settings: protein: recombinant;recombinant, tags: His8 (C-term);, chain copies: 2;2
[14] = target: T1, J2 IgG heavy chain (HC-TEV-His8);J2 IgG …; assay: BLI; 100 mM KCl; BLI: 25 mM Tris-HCl pH 7.5, 2 mM MgCl2, KCl 100 mM (6-20 bp and mutants), 200 mM (30 bp) or 400 mM (40, 50 bp), 25 C; IgG immobilised on Protein A probes; settings: protein: recombinant;recombinant; tags: His8 (C-term);; chain copies: 2;2; blunt

## GUUGUAAAGAAAUAUAACAGGCUUGUACCA / UGGUACAAGCCUGUUAUAUUUCUUUACAAC [30-bp dsRNA]
[1]; 200 mM KCl, kinetic Kd 37 ± 7 nM
  Kd: 47 nM

## 3'-FAM Adenovirus VA-I RNA
[2]
  Kd: 32 nM

## GUUGUAAAGAAAUAUAACAGGCUUGUACCAUUGAUGGAAAAGAACAACGU / ACGUUGUUCUUUUCCAUCAAUGGUACAAGCCUGUUAUAUUUCUUUACAAC [50-bp dsRNA]
[3]
  IC50: 17 nM
[1]
  Kd: 22 nM

## GUUGUAAAGAAAUAUAGGCU / AGCCUAUAUUUCUUUACAAC [20-bp dsRNA]
[4]
  Kd: 220 nM
[5]
  Kd: 150 nM
[6]
  Kd: 300 nM
[7]
  Kd: 430 nM
[8]
  Kd: 940 nM
[9]
  Kd: 120 nM
[1]; 100 mM KCl, kinetic Kd 150 ± 80 nM
  Kd: 120 nM
[10]
  Kd: 710 nM
[11]
  Kd: 360 nM

## GUUGUAAAGAAGGU / ACCUUCUUUACAAC [14-bp dsRNA]
[1]; 100 mM KCl, kinetic Kd 1400 ± 800 nM
  Kd: 2100 nM

## GUUGUAAAGAAAUAUAACAGGCUUGUACCAUUGAUGGAAA / UUUCCAUCAAUGGUACAAGCCUGUUAUAUUUCUUUACAAC [40-bp dsRNA]
[1]; 400 mM KCl, kinetic Kd 33 ± 6 nM
  Kd: 80 nM

B1: 30-bp dsRNA 17% GC (dsRNA)
RNA 1: GUUGUAAAUAAGUUCAAUAUUAUACUAAAU
RNA 2: AUUUAGUAUAAUAUUGAACUUAUUUACAAC
[12]; blunt
  Kd: 36 ± 22 nM

B2: 40-bp dsRNA (dsRNA)
RNA 1: GUUGUAAAGAAGGUCAAUAUUGUACCAAACUUGAUGGAAA
RNA 2: UUUCCAUCAAGUUUGGUACAAUAUUGACCUUCUUUACAAC
[13]; blunt
  Kd: 80 ± 15 nM

B3: 50-bp dsRNA (dsRNA)
RNA 1: GUUGUAAAGAAGGUCAAUAUUGUACCAAACUUGAUGGAAAAGAACAACGU
RNA 2: ACGUUGUUCUUUUCCAUCAAGUUUGGUACAAUAUUGACCUUCUUUACAAC
[13]; blunt
  Kd: 22 ± 8 nM

B4: 6-bp dsRNA (dsRNA)
RNA 1: GUUGUA
RNA 2: UACAAC
[14]
  binding result: no binding

B5: 30-bp dsRNA 3% GC (dsRNA)
RNA 1: AUUAUAAAUAAUUUCAAUAUUAUAUUAAAU
RNA 2: AUUUAAUAUAAUAUUGAAAUUAUUUAUAAU
[12]
  Kd: 220 ± 90 nM

B6: 30-bp dsRNA 47% GC (dsRNA)
RNA 1: GUUGUCCAGAAGGUCAAUAGCGUACCAAAC
RNA 2: GUUUGGUACGCUAUUGACCUUCUGGACAAC
[12]; blunt
  Kd: 110 ± 20 nM

B7: 30-bp dsRNA 0% GC (dsRNA)
RNA 1: B5 RNA 1 with C15A
RNA 2: B5 RNA 2 with G16U
[12]
  Kd: 290 ± 60 nM

B8: 40-bp AU-dinucleotide dsRNA (dsRNA)
RNA 1: AUAUAUAUAUAUAUAUAUAUAUAUAUAUAUAUAUAUAUAU
RNA 2: B8 RNA 1
[13]
  Kd: 91 ± 11 nM

B9: 14-bp dsRNA (dsRNA)
RNA 1: GUUGUAAAGAAGGU
RNA 2: ACCUUCUUUACAAC
[14]
  Kd: 2100 ± 600 nM
